According to US6863888:

How the values were obtained:
[1] = target: GAL4-cJun(56-223) (yeast; human), P04386; assay: cell-based or functional assay
[2] = target: GAL4-cJun(33-223) (yeast; human), P04386; assay: cell-based or functional assay
[3] = target: GAL4-cJun(43-223) (yeast; human), P04386; assay: cell-based or functional assay
[4] = target: T1, GSTcJun(Ala63/73), GST fused to c-Jun AA 1-223 with Ser 63 and Ser 73 converted to alanines
T1 chain: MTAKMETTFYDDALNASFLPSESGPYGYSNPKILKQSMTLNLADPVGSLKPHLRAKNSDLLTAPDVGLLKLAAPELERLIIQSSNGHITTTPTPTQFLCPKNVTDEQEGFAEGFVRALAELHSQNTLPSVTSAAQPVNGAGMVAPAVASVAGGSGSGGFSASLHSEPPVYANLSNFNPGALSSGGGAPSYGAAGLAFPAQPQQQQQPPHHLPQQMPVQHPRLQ

[5] = target: T2, GSTcJun(33-223), GST fused to c-Jun AA 33-223
T2 chain: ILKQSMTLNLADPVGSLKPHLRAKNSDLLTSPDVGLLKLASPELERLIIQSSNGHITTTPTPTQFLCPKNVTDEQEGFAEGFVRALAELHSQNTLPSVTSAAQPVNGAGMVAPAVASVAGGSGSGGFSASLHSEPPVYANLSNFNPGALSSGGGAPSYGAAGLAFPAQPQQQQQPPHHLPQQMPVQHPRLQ

[6] = target: GSTvJun, GST fused to the region of v-Jun equivalent to chicken c-Jun AA 1-144 [GST: P08515]
[7] = target: GSTcJun(wt), glutathione-S-transferase fused to c-Jun AA 1-223 [GST: P08515]
[8] = target: T3, GST-cJun(1-79), GST fused to c-Jun AA 1-79
T3 chain: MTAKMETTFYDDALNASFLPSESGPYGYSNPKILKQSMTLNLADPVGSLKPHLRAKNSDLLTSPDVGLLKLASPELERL

[9] = target: myelin basic protein (MBP)
[10] = target: T4, GST-cJun(43-223), GST fused to c-Jun AA 43-223
T4 chain: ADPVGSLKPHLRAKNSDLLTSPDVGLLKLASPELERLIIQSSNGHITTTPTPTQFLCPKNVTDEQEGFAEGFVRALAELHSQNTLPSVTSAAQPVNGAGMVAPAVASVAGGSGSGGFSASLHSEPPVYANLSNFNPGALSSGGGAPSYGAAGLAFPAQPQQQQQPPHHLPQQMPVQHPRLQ

B1: c-Jun N-terminal protein kinase (JNK), 46 kD form, endogenous kinase from cell extracts, P45983-2 1-384 (enzyme)
chain: MSRSKRDNNFYSVEIGDSTFTVLKRYQNLKPIGSGAQGIVCAAYDAILERNVAIKKLSRPFQNQTHAKRAYRELVLMKCVNHKNIIGLLNVFTPQKSLEEFQDVYIVMELMDANLCQVIQMELDHERMSYLLYQMLCGIKHLHSAGIIHRDLKPSNIVVKSDCTLKILDFGLARTAGTSFMMTPYVVTRYYRAPEVILGMGYKENVDLWSVGCIMGEMVCHKILFPGRDYIDQWNKVIEQLGTPCPEFMKKLQPTVRTYVENRPKYAGYSFEKLFPDVLFPADSEHNKLKASQARDLLSKMLVIDASKRISVDEALQHPYINVWYDPSEAEAPPPKIPDKQLDEREHTIEEWKELIYKEVMDLEERTKNGVIRGQPSPLAQVQQ
- Ha-Ras responsiveness, CAT activity of 5xGAL4-Elb-CAT reporter in F9 cells (fold induction) [1]: 5.2
- UV responsiveness, CAT activity of 5xGAL4-Elb-CAT reporter in F9 cells [1]: 1.5 fold
- Ha-Ras responsiveness, CAT activity of 5xGAL4-Elb-CAT reporter in F9 cells (fold induction) [2]: 9.8
- Ha-Ras responsiveness, CAT activity of 5xGAL4-Elb-CAT reporter in F9 cells (fold induction) [3]: 5.2
- UV responsiveness, CAT activity of 5xGAL4-Elb-CAT reporter in F9 cells [3]: 1.5 fold

B2: c-Jun N-terminal protein kinase (JNK), 46 kD form, endogenous kinase from cell extracts (protein)
chain: B1 chain
- phosphorylation in solid-phase kinase assay [4]: Phosphorylation of this protein was considerably lower than that of GSTcJun(wt)
- phosphorylation of the GSTcJun fusion protein by bound kinase [5]: Removal of AA 1-32 decreased phosphorylation of GSTcJun but had only a small effect on kinase binding

B3: epitope-tagged JNK1 (Flag epitope Asp-Tyr-Lys-Asp-Asp-Asp-Asp-Lys inserted between codons 1 and 2), expressed in COS cells (protein)
chain: MDYKDDDDKSRSKRDNNFYSVEIGDSTFTVLKRYQNLKPIGSGAQGIVCAAYDAILERNVAIKKLSRPFQNQTHAKRAYRELVLMKCVNHKNIIGLLNVFTPQKSLEEFQDVYIVMELMDANLCQVIQMELDHERMSYLLYQMLCGIKHLHSAGIIHRDLKPSNIVVKSDCTLKILDFGLARTAGTSFMMTPYVVTRYYRAPEVILGMGYKENVDLWSVGCIMGEMVCHKILFPGRDYIDQWNKVIEQLGTPCPEFMKKLQPTVRTYVENRPKYAGYSFEKLFPDVLFPADSEHNKLKASQARDLLSKMLVIDASKRISVDEALQHPYINVWYDPSEAEAPPPKIPDKQLDEREHTIEEWKELIYKEVMDLEERTKNGVIRGQPSPLAQVQQ
- phosphorylation, immunecomplex kinase assay [6]: both GST-vJun and myelin basic protein (MBP) are very poor substrates for JNK1
- phosphorylation, immunecomplex kinase assay [4]: Replacement of Ser-63 and Ser-73 with Ala also decreased the observed phosphorylation
- phosphorylation, immunecomplex kinase assay [7]: JNK1 efficiently phosphorylated GST-cJun fusion proteins containing residues 1-223 and 1-79 of c-Jun
- phosphorylation, immunecomplex kinase assay [8]: JNK1 efficiently phosphorylated GST-cJun fusion proteins containing residues 1-223 and 1-79 of c-Jun
- phosphorylation, immunecomplex kinase assay [9]: both GST-vJun and myelin basic protein (MBP) are very poor substrates for JNK1
- phosphorylation, immunecomplex kinase assay [10]: a deletion of c-Jun NH2-terminal sequences including the d-domain (residues 1-42) caused a marked decrease in phosphorylation by JNK1
